From patent publication US8615311B2, “Microelectorode array, methods for preparing the same and uses thereof” (Rutgers, The State University of New Jersey, priority 2010, dated 2013)

Tests used:
Assay type in all cases: cell-based, rat
Spinal cord explants = assay: Axonal outgrowth from spinal cord explants with or without Ara-C in the medium; settings: 1 μm Ara-C added to NB medium, after 13 days in culture, vs standard NB medium
Procedure: Spinal cord explants are prepared using procedures known in the art. Briefly, pregnant Sprague Dawley rats were sacrificed by CO2 inhalation at gestational day 15, and pups were removed by Cesarean section. Spinal cord was removed posteriorly and transferred to a PDMS-lined petri dish in a drop of medium. The cord is then bisected longitudinally and finely minced transversely into sections 200-300 μm thick. Sections were suspended in NB medium plus 1% GlutaMAX supplement and 2% B27 supplement. Explants were then plated onto chemically or topographically patterned glass substrates or MEAS, all of which had been adsorbed overnight with laminin at 40 μg/ml in 10 μL of medium. Explants can be precisely positioned on the growth substrate during this step. In this experiment, explants were positions with the explant body over three contacts in the top row of the MEA, allowing space for axonal outgrowth over the other contacts. After 5 min, allowing for initial adhesion, enough medium was added to just cover the explant, and it was placed in an incubator at 5% CO2 and 37 deg C. Medium was replaced every 2 days.
Explants were fixed and stained on DIV 13 to identify axonal and dendritic outgrowth. […] Five well-attached explants were imaged in each condition, and their outgrowth was quantified using ImageJ software (NIH, Bethesda Md.). […]

Myoblasts = assay: Myoblast fusion and differentiation into myotubes on surfaces adsorbed with different coatings
Procedure: Myoblasts were isolated and cultured as previously described. Briefly, pregnant Sprague Dawley rats were sacrificed by CO2 inhalation at gestational day 21, and pups were removed by Cesarean section. Hind limb muscles were removed, and tissue was finely minced and digested (20 min at 37° C.) in PBS containing 1.5 U/ml collagenase (type D, Roche, Mannheim, Germany) and 2.5 U/ml dispase (type II, Roche, Mannheim, Germany). Single cells were separated from debris, pelleted by centrifugation, and resuspended in growth medium consisting of Ham's F-10 medium plus 20% fetal bovine serum, 1% Penicillin/Streptomycin, (all from Invitrogen, Carlsbad, Calif.) and 2.5 ng/ml human b-FGF (Promega Corporation, Madison, Wis.). Cells were then plated into 75 cm^2 flasks and incubated for 24 hrs. Adherent cells were resuspended and plated onto PDMS substrates in differentiation medium consisting of Neurobasal medium including 2% B-27 supplement, 1% Penicillin/Streptomycin and 1% GlutaMAX (all from Invitrogen, Carlsbad, Calif.) at a surface density of 200,000 cells/cm^2. Prior to seeding, surfaces were plasma treated (O2 plasma for 120 S at 50 Watts) and adsorbed overnight with 40 μg/ml laminin (Sigma Aldrich, St. Louis, Mo.). Medium changes were performed every other day.

Hippocampal neurons = assay: Morphology and Sholl analysis (Bonfire program) of GFP-transfected hippocampal neurons treated with BDNF; settings: 25 ng/ml BDNF
Procedure: Hippocampal neurons were isolated from E18 rat embryos and cultured. Briefly, embryos were removed by Cesarian section at 18 days gestation and decapitated. The hippocampi were manually dissected under a microscope, and cells were triturated with a fire polished glass pipette tip, counted on a hemocytometer, and plated at a density of ˜1800 cells per mm^2 on 35 mm petri plates (Corning) coated with 1 mg/ml poly-D-lysine (Sigma-Aldrich). Cultures were maintained in Neurobasal medium containing penicillin, streptomycin, glutamine, and B27 supplement (NB; all purchased from Invitrogen).
At 5 days in vitro (DIV5), cells were transfected with cDNA encoding GFP using Effectene (Qiagen). The low efficiency of this transfection technique in this cell system allows the easy identification of the processes associated with single neurons. In the BDNF treatment groups, treatment occurred from DIV7-10, during which regular NB was replaced with NB containing 25 ng/ml BDNF. […] Cultures were fixed in 4% paraformaldehyde on DIV10 and immunostained with rat anti-GFP (a gift from Dr. Shu-Chan Hsu, Rutgers University) and MAP-2 (Sigma-Aldrich). Neurons were imaged in the GFP channel at 200× using an Olympus Optical IX50 microscope with a Cooke Sensicam CCD cooled camera, fluorescence imaging system, and ImagePro software (MediaCybernetics). Images were acquired in 8-bit TIFF format, measuring 512×640 pixels.
An embodiment Bonfire program is a series of custom scripts written in, for example, MATLAB (MathWorks), although it will be appreciated that any suitable programming language may be employed. Neuronal morphology was digitized in three stages based on the initial images. In the first stage, the semi-automated tools available through the NeuronJ plugin to ImageJ (NIH, Bethesda Md.) were used to define all neurite positions (FIG. 6(A-B)). The data for each neurite are exported using NeuronJ in the form of a series of nodes with defined positions in the X-Y plane, where nodes belonging to an individual neurite segment are linked by association. These tools allow the user to guide the tracing of each neuritic segment with course resolution by hand but reduce tracing time by using a curve-fitting algorithm to fine-tune the exact location of the nodes defining the neurite position.
In the second stage, portions of the embodiment Bonfire program were used to convert the strings of nodes provided by NeuronJ into SWC format for further manipulation. NeuronStudio is then used to define the pattern of connectivity between neurite segments (FIG. 6(C)). The transformation of the data into SWC format allows for the linkage of the simple strings of nodes defined previously into more complex branching structures. After linking is complete, another component of the embodiment Bonfire program checks the resulting structure for errors and non-linkages (FIG. 6(D)), based on the assumption that each neuritic segment may only give rise to two or less daughter segments. […] These two steps fully determine the structure of each cell's neuritic arbor in 2-dimensional space and encode it in a digital format.
Using these digitized neuritic arbors, a second component of the embodiment Bonfire program was then used to perform process identification and extract the following metrics: number of primary neurites, number of secondary neurites, number of branch points per cell, number of terminal neurite tips per cell, and Sholl analysis performed with a 3.0 μm ring interval (FIG. 6(E)). Sholl analysis is performed conceptually by drawing concentric circles around a cell body at incrementally increasing radii and counting the number of times each circle crosses a neuritic segment. The number of intersections is graphed as a function of radial distance from the cell body to give a quantitative representation of how neurite density varies spatially. […]

[1] = DIV7-10, vs untreated control, data not shown

Molecule: Nc1ccn([C@@H]2O[C@H](CO)[C@@H](O)[C@@H]2O)c(=O)n1 [Ara-C]
- axonal outgrowth length (maximum axonal extension from explant body) (Spinal cord explants): did not appreciably reduce

Molecule: laminin
- myoblast fusion and maturation into striated myotubes (Myoblasts; laminin adsorbed surfaces): robust
- myotube differentiation (Myoblasts; surface adsorbed with the substance, data not shown): promoted myotube differentiation

B1: BDNF: a well-studied extracellular factor that regulates neurite morphology (protein, UniProt P23560 19-247, looked up)
Neurotrophic factor BDNF …: APMKEANIRGQGGLAYPGVRTHGTLESVNGPKAGSRGLTSLADTFEHVIEELLDEDQKVRPNEENNKDADLYTSRVMLSSQVPLEPPLLFLLEEYKNYLDAANMSMRVRRHSDPARRGELSVCDSISEWVTAADKKTAVDMSGGTVTVLEKVPVSKGQLKQYFYETKCNPMGYTKEGCRGIDKRHWNSQCRTTQSYVRALTMDSKKRIGWRFIRIDTSCVCTLTIKRGR
- average number of branch points per cell (Hippocampal neurons; DIV7-10, vs untreated control): no change between conditions
- distal neurites (total Sholl curve) (Hippocampal neurons; DIV7-10, vs untreated control): no effect on distal neurites
- number of primary neurites (primary extensions) per cell (Hippocampal neurons; DIV7-10, vs untreated control): statistically significant increase
- number of secondary neurites per cell (Hippocampal neurons; DIV7-10, vs untreated control): does not reach statistical significance
- number of terminal branches per cell (Hippocampal neurons; DIV7-10, vs untreated control): no change between conditions
- average process length (Hippocampal neurons; [1]): no significant change
- total arbor length (Hippocampal neurons; [1]): no significant change
- proximal neurites within the first 35 μm of the soma (total Sholl curve) (Hippocampal neurons; DIV7-10, vs untreated control, global exposure in vitro): increases proximal neurites
- number of Sholl intersections with terminal neurites (Hippocampal neurons; DIV7-10, RIT labeling scheme Sholl analysis): increase
- number of Sholl intersections with primary neurites (Hippocampal neurons; DIV7-10, segment identity-specific Sholl analysis): increase
